# Test results taken from patent US20200299730A1.
# Tests used:
# Assay in all cases: cell-based or functional assay
# [1] = molecular target: MART-1 peptide pulsed on HLA-A02 expressing K562 target cells (human)
# [2] = molecular target: MART-1 peptide pulsed on K562 target cells expressing the non-cognate MHC HLA-A01 (human)
# [3] = molecular target: MART1 peptide-HLA (pHLA) single polypeptide chain (antigenic peptide, β2-microglobulin, HLA-A2 domains) constitutively expressed on K562 target cells (human)
Substance,Cytotoxic Killing [1],Cytotoxic Killing [2],Cytotoxic Killing [3],"single-cell secretome (Isoplexis), CD8+ T cells producing more than one cytokine [1]"
"MART-1 (F5) TCR expressed by lentiviral transduction (pCCLc-MND-F5TCR-Myc271), on human CD3+ T cells (TCR; unit assumed)",38.1%,8.5%,39.4%,–
"MART-1 neoTCR (F5) encoded by HR template NTC9385R-TRAC(1k)DTS_P2A.F5.TRBopt.f-P2A.TRAopt.BGHpA (SEQ ID NO: 9), on edited primary human T cells (TCR; unit assumed)",25.6%,10.6%,34.5%,–
"MART-1 neoTCR (F5) encoded by HR template NTC9385R-TRAC(1k)DTS_P2A.F5.TRBopt.f-P2A.TRA(Va)opt (SEQ ID NO: 10), on edited primary human T cells",–,–,–,< 40%
"NY-ESO (1G4) TCR expressed by lentiviral transduction (pCCLc-MND-1G4TCR-Myc271), on human CD3+ T cells (TCR; unit assumed)",8.7%,8.3%,8.4%,–
